From patent US20250042977A1 (WUHAN BANKE BIOTECHNOLOGY, published 2025) come the findings set out here.

For assay [1], the target named is T1, recombinant human respiratory syncytial virus envelope protein F fused to the Fc fragment of antibody IgG1 … (human respiratory syncytial virus, UniProt P03420 26-524; P01857 99-330 = IgG part).
T1 construct: also called recombinant F protein; RSV F protein
Put plainly: ELISA, recF (4 ug/mL) coated, detection with HRP-Anti-FLAG.

The target in another assay is T2, bovine serum albumin (bovine, UniProt P02769 25-607).
T2 construct: Negative control; also called BSA
Put plainly: ELISA, BSA as negative control, detection with HRP-Anti-FLAG. Background: An ELISA detects its analyte on a solid surface through an enzyme-linked reagent.

Assay [2] deals with F protein of respiratory syncytial virus type A (RSV A) (human respiratory syncytial virus type A). As to the kind of experiment: cell-based or functional assay.
The target in assay [3] is F protein of respiratory syncytial virus type B (RSV B) (human respiratory syncytial virus type B). Put plainly: cell-based or functional assay.

Broadly, the EC50 is the midpoint of the concentration-response curve.

T2 sequence (P02769 25-607 limits assumed): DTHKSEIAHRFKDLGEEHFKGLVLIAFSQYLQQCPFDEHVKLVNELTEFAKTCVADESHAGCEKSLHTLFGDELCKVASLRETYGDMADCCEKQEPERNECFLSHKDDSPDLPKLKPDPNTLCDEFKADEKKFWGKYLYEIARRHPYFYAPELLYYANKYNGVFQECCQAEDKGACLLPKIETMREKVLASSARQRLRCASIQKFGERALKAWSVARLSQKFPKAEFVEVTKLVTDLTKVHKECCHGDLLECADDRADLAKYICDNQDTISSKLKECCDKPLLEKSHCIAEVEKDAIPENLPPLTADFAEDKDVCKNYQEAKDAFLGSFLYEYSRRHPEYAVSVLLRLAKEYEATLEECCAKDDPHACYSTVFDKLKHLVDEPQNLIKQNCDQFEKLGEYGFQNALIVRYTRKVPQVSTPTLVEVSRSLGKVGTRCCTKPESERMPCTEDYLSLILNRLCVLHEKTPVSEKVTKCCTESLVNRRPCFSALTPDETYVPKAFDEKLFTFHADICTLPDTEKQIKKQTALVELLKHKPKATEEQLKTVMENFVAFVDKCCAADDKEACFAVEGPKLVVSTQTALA
T1 sequence (P03420 26-524, tags or fused parts left off): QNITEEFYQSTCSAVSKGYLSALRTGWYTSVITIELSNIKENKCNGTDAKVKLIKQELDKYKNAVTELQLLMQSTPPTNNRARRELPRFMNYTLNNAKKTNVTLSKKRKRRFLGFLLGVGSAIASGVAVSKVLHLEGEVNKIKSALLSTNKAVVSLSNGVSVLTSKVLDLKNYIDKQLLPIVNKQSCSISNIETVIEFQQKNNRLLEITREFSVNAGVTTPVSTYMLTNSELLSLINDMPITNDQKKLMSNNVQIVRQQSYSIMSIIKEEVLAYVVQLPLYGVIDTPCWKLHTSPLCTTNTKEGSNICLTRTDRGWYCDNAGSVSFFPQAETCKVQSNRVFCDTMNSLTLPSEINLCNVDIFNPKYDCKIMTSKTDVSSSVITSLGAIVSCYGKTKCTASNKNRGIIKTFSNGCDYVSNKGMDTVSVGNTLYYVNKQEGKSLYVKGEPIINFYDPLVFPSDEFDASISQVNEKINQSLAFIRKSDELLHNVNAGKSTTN
Protocol for bovine serum albumin: recF (4 μg/mL) was coated on an ELISA plate and incubated overnight at 4° C. and then blocked with PBS+3% milk at 37° C. for 1 h. […] The plate was then washed four times with PBST (PBS+0.05% Tween 20) and then incubated with HRP-Anti-FLAG monoclonal antibody at 37° C. for 1 h. The ABTS was added for color development. Bovine serum albumin (BSA) was used as a negative control.

B1: C-based single domain antibody BBT-VC001-1 (designed binder)
chain: PSVLCLPPKPKDTLVISRTPEVTCVVSGYNPYDFPIIKFKWYVDGVEVDNAKVKPRDENSYNTDSVVSKLTVLHQDWLNGKEYKCKVSAREGGSSGEWYYDLWGPIECTISKAK
notes: expressed in E. coli HB2151; also called C-type nanobody BBT-VC001-1; BBC-VC001-1; not shown: C-terminal 6x His tag and FLAG tag
Regarding B1, the EC50 in assay [1] worked out at 28 nM. Also, in the assay with bovine serum albumin, the binding result is given as “no binding”. In addition, the “IC50 for inhibition of respiratory syncytial virus type A (infection of Hep-2 cells)” value in assay [2] is 8.33 ng/mL. For the same molecule, the “IC50 for inhibition of respiratory syncytial virus type B (infection of Hep-2 cells)” value in assay [3] came out at 8.42 ng/mL.
